Experimental data from PMC2663797 (The journal of physical chemistry. B, 2008).

Target: the molecule itself
Test: SDS-PAGE

B1: porin OmpF from E. coli (wild type) (natural protein, UniProt P02931 23-362, looked up)
chain: AEIYNKDGNKVDLYGKAVGLHYFSKGNGENSYGGNGDMTYARLGFKGETQINSDLTGYGQWEYNFQGNNSEGADAQTGNKTRLAFAGLKYADVGSFDYGRNYGVVYDALGYTDMLPEFGGDTAYSDDFFVGRVGGVATYRNSNFFGLVDGLNFAVQYLGKNERDTARRSNGDGVGGSISYEYEGFGIVGAYGAADRTNLQEAQPLGNGKKAEQWATGLKYDANNIYLAANYGETRNATPITNKFTNTSGFANKTQDVLLVAQYQFDFGLRPSIAYTKSKAKDVEGIGDVDLVNYFEVGATYYFNKNMSTYVDYIINQIDSDNKLGVGSDDTVAVGIVYQF
- stoichiometry N: 3
